Test results reported in patent US20230296569A1, “Substance quantification in complex mixtures” (ISA Pharmaceuticals B.V., priority 2021, published 2023).

Key:
[1] = Peptide content (assay) of lyophilized drug product by UPLC-UV at 220 nm, method according to the invention (USP reserpine reference standard, RRF); format: physicochemical; settings: method according to the invention (USP RS)
From the text: The UPLC method similar to Example 1 was used for the quantification of analytes (i.e. the individual peptides) in mixtures DP-5P (SEQ ID NO: 1-5) and DP-7P (SEQ ID NO: 6-12) and for the determination of content uniformity of mixtures DP-5P and DP-7P (lyophilized product). The method is based on the use of an external reference standard. The relative response factor (ratio of molar extinction coefficients, RRF) against this external reference standard has been established for each peptide. The purity, individual related substances, and the assay of DP-5P and DP-7P were determined by reversed phase rapid HPLC (UPLC) using a mobile phase gradient of ACN/IPA and water and UV detection at λ220 nm.
The following lyophilized peptide compositions were used: DP-5P comprising peptides represented herein by SEQ ID NO: 1-5 admixed at equal net weights of 0.40 mg of each peptide per vial (total amount of protein per vial being 2.00 mg) and 0.56 mg TFA per vial; and DP-7P comprising peptides represented herein by SEQ ID NO: 6-12 admixed at equal net weights of 0.40 mg of each peptide per vial (total amount of protein per vial being 2.80 mg) and 0.96 mg TFA per vial. The following chemicals were used: Acetonitrile, (Biosolve, 01204102); UPLC water, (Type 1, milli-Q); trifluoroacetic acid, (Chem Lab, CLoo.2094.0001), 2-propanol, (UPLC/MS grade, Biosolve, 16264102); Reserpine, (USP, Sigma Aldrich, 1601000). The following equipment was used: QuanRecovery vials, (Waters, 186009186); UPLC pump equipped with a gradient system, autosampler, and UV detection (Waters Acquity or equivalent) and mixer volume 425 μL.
• Mobile phase A: 0.1% (v/v) TFA in water • Mobile phase B: 0.1% (v/v) TFA in 70/30 ACN/IPA • Diluent A: 0.05% (v/v) TFA in water • Diluent B: 0.05% (v/v) TFA in ACN • Blank solution: 80/20 (v/v) diluent A/diluent B • Purge solvent: 80/20 (v/v) water/ACN • Needle wash: 0.05% (v/v) TFA in 80/20 (v/v) water/ACN
5.00 mg Reserpine reference material was accurately weighed and added into a 50 mL volumetric flask. 40.0 mL of blank solution was added, by means of a volumetric pipette. The solution was stirred for 10 min, by means of a magnetic stirrer, until fully dissolved. The solution was diluted to volume with blank solution and mixed well.
Transfer of 2.0 mL, by means of a volumetric pipette, of stock reference solution 1 into a 20 mL volumetric flask. Diluted to volume with blank solution and homogenized.
This sample preparation was setup for lyophilized products DP-5P and DP-7P in an initially sealed container. Before opening and dissolving the drug product, the vials were equilibrated at room temperature for at least 1 hour. The content of the vial was dissolved with 0.8 mL of diluent B, and stirred for 20 min, using a magnetic stirrer. 3.2 mL of diluent A were added. The solution was stirred well for 20 min, using a magnetic stirrer. After dissolving the content of the vial, the sample vial was kept on the lab bench for 30 minutes. The solution was stirred briefly and transferred into an HPLC vial.
• Column: Advance Bio Peptide Map (2.7 μm, 250 x 2.1 mm) • Sample matrix 0.05%v/v TFA in ACN : water (1:4 v/v) • Sample concentration 100 μg/mL net peptide (of each drug substance), duplicate • Injection volume: 10 μL • Column temperature: 40° C. • Sample temperature: 5° C. • Detection: UV (λ=220 nm) • Flow rate: 0.2 mL/min • Run time: 65 min • Purge solvent: 80/20 (v/v) water/ACN • Needle wash: 0.05% (v/v) TFA in 80/20 water/ACN (v/v) (20 s) • Seal wash: 90/10 (v/v) water/MeOH • Elution mode: Gradient elution • Eluent A: 0.1%v/v TFA in water • Eluent B: 0.1%v/v TFA in ACN/IPA (70:30 v/v)
The RRF was determined for all 12 peptides, enabling the quantification of each peptide against a reserpine as shown above. For the determination, the absorbance of each peptide in a solution comprising said peptide at a known concentration, and of a reference standard solution comprising reserpine at a known concentration, were measured at 220 nm. […]

[2] = Peptide content (assay) of lyophilized drug product by UPLC-UV at 220 nm, conventional method (peptide as reference standard); format: physicochemical; settings: conventional method (peptide as RS)
Protocol: The purity including individual related substances and the assay of a DP-5P (5 peptides, SEQ ID NOs: 1-5) and DP-7P (7 peptides, SEQ ID NOs: 6-12) mixture were determined by reversed phase rapid HPLC (UPLC) using a mobile phase gradient of acetonitrile and water and UV detection at λ=220 nm.
• Column: RP C18, e.g. Waters Acquity, BEH 130 PST (1.7 μm, 150×2.1 mm) • Sample matrix Eluent A : Eluent B=85:15 (v/v). • Sample concentration 100 μg/mL net peptide (of each drug substance mixture), duplicate • Injection volume: 5 μL • Column temperature: 65° C. • Sample temperature: 5° C. • Detection: UV (λ=220 nm) • Flow rate: 0.3 mL/min • Eluent A: 0.05%v/v TFA and 1%v/v Acetonitrile (ACN) in water • Eluent B: 0.05%v/v TFA in ACN
The relative retention times (RRTs) assigned to peptides and related substances both in a DP-5P (SEQ ID NO: 1-5) and DP-7P (SEQ ID NO: 6-12) mixture was calculated with reference to the retention time of the peptide eluting in the middle (FIG. 1 and FIG. 2). That retention time was used as reference as the main peak of this drug substance was detected approx. in the center of the chromatogram. The related substances were determined by area normalization. The individual related substances were reported≥0.10%a/a. The total related substances were calculated as the sum of all individual related substances equal to or greater than a disregard limit of 0.0500%a/a. The purity was calculated as the difference between total related substances and 100%.
The assay of each of the peptides was calculated against a reference standard solution containing either five peptides (DP-5P) or seven peptides (DP-7P) and was expressed in percent and in mg net peptide/vial. For this reference method, the absorption ratio between the reference substance and the analyte is 1, because the reference substance is the analyte itself.
At T=0 months (TOM) the peptide content was measured using the conventional method of Example 2. From T=48 months (T48M) onwards the peptide content was measured with the conventional method of Example 2 and the method according to the invention of Example 3.

Row | Sequence | Assay (mg/vial) ([1]; DP-5P batch, T48M) | Label claim (% target 0.40 mg/vial) ([1]; DP-5P batch, T48M) [%] | Assay (mg/vial) ([1]; DP-5P batch, T54M) | Label claim (% target 0.40 mg/vial) ([1]; DP-5P batch, T54M) [%] | Assay (mg/vial) ([1]; DP-5P batch, T60M) | Label claim (% target 0.40 mg/vial) ([1]; DP-5P batch, T60M) [%] | Assay (mg/vial) ([1]; DP-7P batch, T48M) | Label claim (% target 0.40 mg/vial) ([1]; DP-7P batch, T48M) [%] | Assay (mg/vial) ([1]; DP-7P batch, T54M) | Label claim (% target 0.40 mg/vial) ([1]; DP-7P batch, T54M) [%] | Assay (mg/vial) ([1]; DP-7P batch, T60M) | Label claim (% target 0.40 mg/vial) ([1]; DP-7P batch, T60M) [%] | Assay (mg/vial) ([2]; DP-7P batch, T0M) | Label claim (% target 0.40 mg/vial) ([2]; DP-7P batch, T0M) [%] | Assay (mg/vial) ([2]; DP-7P batch, T48M) | Label claim (% target 0.40 mg/vial) ([2]; DP-7P batch, T48M) [%] | Assay (mg/vial) ([2]; DP-7P batch, T54M) | Label claim (% target 0.40 mg/vial) ([2]; DP-7P batch, T54M) [%] | Assay (mg/vial) ([2]; DP-7P batch, T60M) | Label claim (% target 0.40 mg/vial) ([2]; DP-7P batch, T60M) [%] | other results
1 | DKCLKFYSKISEYRHYCYSLYGTTL (Peptide 1) | 0.3910 | 98 | 0.3932 | 98 | 0.3701 | 93 | – | – | – | – | – | – | – | – | – | – | – | – | – | – | Assay (mg/vial) ([2]; DP-5P batch, T0M): 0.4047 mg/vial; Label claim (% target 0.40 mg/vial) ([2]; DP-5P batch, T0M): 101%; Assay (mg/vial) ([2]; DP-5P batch, T48M): 0.4107 mg/vial; Label claim (% target 0.40 mg/vial) ([2]; DP-5P batch, T48M): 103%; Assay (mg/vial) ([2]; DP-5P batch, T54M): 0.4088 mg/vial; Label claim (% target 0.40 mg/vial) ([2]; DP-5P batch, T54M): 102%; Assay (mg/vial) ([2]; DP-5P batch, T60M): 0.4082 mg/vial; Label claim (% target 0.40 mg/vial) ([2]; DP-5P batch, T60M): 102%
2 | DKKQRFHNIRGRWTGRCMSCCRSSRTRRETQL (Peptide 6) | – | – | – | – | – | – | 0.4100 | 103 | 0.4033 | 101 | 0.4010 | 100 | 0.4315 | 108 | 0.4390 | 110 | 0.4280 | 107 | 0.4286 | 107 | –
3 | HYCYSLYGTTLEQQYNKPLCDLLIR (Peptide 7) | – | – | – | – | – | – | 0.4036 | 101 | 0.3980 | 99 | 0.3967 | 99 | 0.4393 | 107 | 0.4279 | 107 | 0.4219 | 105 | 0.4222 | 106 | –
4 | KQQLLRREVYDFAFRDLCIVYRDGN (Peptide 8) | – | – | – | – | – | – | 0.3980 | 99 | 0.3928 | 98 | 0.3900 | 98 | 0.4357 | 109 | 0.4323 | 108 | 0.4289 | 107 | 0.4294 | 107 | –
5 | LPQLCTELQTTIHDIILECVYCKQQLLRREVY (Peptide 9) | – | – | – | – | – | – | 0.3901 | 98 | 0.3718 | 93 | 0.3700 | 93 | 0.4328 | 108 | 0.4325 | 108 | 0.4262 | 107 | 0.4361 | 109 | –
6 | LYCYEQLNDSSEEEDEIDGPAGQAEPDRAHYNIVT (Peptide 2) | 0.3950 | 99 | 0.3932 | 98 | 0.3880 | 97 | – | – | – | – | – | – | – | – | – | – | – | – | – | – | Assay (mg/vial) ([2]; DP-5P batch, T0M): 0.4085 mg/vial; Label claim (% target 0.40 mg/vial) ([2]; DP-5P batch, T0M): 102%; Assay (mg/vial) ([2]; DP-5P batch, T48M): 0.4141 mg/vial; Label claim (% target 0.40 mg/vial) ([2]; DP-5P batch, T48M): 104%; Assay (mg/vial) ([2]; DP-5P batch, T54M): 0.4149 mg/vial; Label claim (% target 0.40 mg/vial) ([2]; DP-5P batch, T54M): 104%; Assay (mg/vial) ([2]; DP-5P batch, T60M): 0.4174 mg/vial; Label claim (% target 0.40 mg/vial) ([2]; DP-5P batch, T60M): 104%
7 | MHGDTPTLHEYMLDLQPETTDLYCYEQLNDSSEEE [Peptide 3] | 0.3798 | 95 | 0.3789 | 95 | 0.3883 | 97 | – | – | – | – | – | – | – | – | – | – | – | – | – | – | Assay (mg/vial) ([2]; DP-5P batch, T0M): 0.3942 mg/vial; Label claim (% target 0.40 mg/vial) ([2]; DP-5P batch, T0M): 99%; Assay (mg/vial) ([2]; DP-5P batch, T48M): 0.4311 mg/vial; Label claim (% target 0.40 mg/vial) ([2]; DP-5P batch, T48M): 108%; Assay (mg/vial) ([2]; DP-5P batch, T54M): 0.4194 mg/vial; Label claim (% target 0.40 mg/vial) ([2]; DP-5P batch, T54M): 105%; Assay (mg/vial) ([2]; DP-5P batch, T60M): 0.4170 mg/vial; Label claim (% target 0.40 mg/vial) ([2]; DP-5P batch, T60M): 104%
8 | MHQKRTAMFQ QERPRKLPQLCTELQTTIHD (MHQKRTAMFQQERPRKLPQLCTELQTTIHD; Peptide 10) | – | – | – | – | – | – | 0.4060 | 101 | 0.3966 | 99 | 0.3945 | 99 | 0.4212 | 105 | 0.4329 | 108 | 0.4271 | 107 | 0.4362 | 109 | –
